Experiments:
[1] = test system: ABF1 (Arabidopsis thaliana); test: cell_activity; settings: yeast lacZ; no activity without ABRE
[2] = test system: ABF2 (Arabidopsis thaliana); test: cell_activity; settings: yeast lacZ

Substance: Em1a trimer reporter
- activity (fold over control) [1]: 6
- activity (fold over background) [2]: 2

Source: patent publication US6194559
